Experiments:
Test in all cases: purified protein
purified protein [1] = substrate: CCOP(=O)(OCC)SCCSCC; type: biochemical, Mus musculus; details: 1 mM Ca2+, 50 mM Tris-HCl pH 8.0, 0.1 mM DTNB, substrate range 1-10 mM
purified protein [2] = substrate: O=C1CCCS1; type: biochemical, Mus musculus; details: 1 mM Ca2+, 50 mM Tris-HCl pH 7.0, 0.1 mM DTNB, substrate range 1-10 mM
purified protein [3] = substrate: CCOP(=O)(OCC)SCCSCC; type: biochemical, Homo sapiens; details: 1 mM Ca2+, 50 mM Tris-HCl pH 8.0, 0.1 mM DTNB, substrate range 1-10 mM
purified protein [4] = substrate: O=C1CCCS1; type: biochemical, Homo sapiens; details: 1 mM Ca2+, 50 mM Tris-HCl pH 7.0, 0.1 mM DTNB, substrate range 1-10 mM

Row | Protein | Km (purified protein [1]) [mM] | Vmax (purified protein [1]) [µM/min] | kcat (purified protein [1]) [s⁻¹] | kcat/Km (purified protein [1]) [M⁻¹ s⁻¹] | Km (purified protein [2]) [mM] | Vmax (purified protein [2]) [µM/min] | kcat (purified protein [2]) [s⁻¹] | kcat/Km (purified protein [2]) [M⁻¹ s⁻¹] | Km (purified protein [3]) [mM] | Vmax (purified protein [3]) [µM/min] | kcat (purified protein [3]) [s⁻¹] | kcat/Km (purified protein [3]) [M⁻¹ s⁻¹] | Km (purified protein [4]) [mM] | Vmax (purified protein [4]) [µM/min] | kcat (purified protein [4]) [s⁻¹] | kcat/Km (purified protein [4]) [M⁻¹ s⁻¹]
1 | MoSMP30 (Mus musculus) (protein) MSSIKVECVLRENYRCGESPVWEEASQSLLFVDIPSKIICRWDTVSNQVQRVAVDAPVSSVALRQLGGYVATIGTKFCALNWENQSVFVLAMVDEDKKNNRFNDGKVDPAGRYFAGTMAEETAPAVLERHQGSLYSLFPDHSVKKYFDQVDISNGLDWSLDHKIFYYIDSLSYTVDAFDYDLQTGQISNRRIVYKMEKDEQIPDGMCIDAEGKLWVACYNGGRVIRLDPETGKRLQTVKLPVDKTTSCCFGGKDYSEMYVTCARDGLNAEGLLRQPDAGNIFKITGLGVKGIAPYSYAG | 3.57 ± 1.5 | 0.0085 | 0.00193 | 0.533 | 39.49 ± 7.9 | 0.286 | 0.0647 | 1.63 | – | – | – | – | – | – | – | –
2 | HuSMP30 (Homo sapiens) (protein) MSSIKIECVLPENCRCGESPVWEEVSNSLLFVDIPAKKVCRWDSFTKQVQRVTMDAPVSSVALRQSGGYVATIGTKFCALNWKEQSAVVLATVDNDKKNNRFNDGKVDPAGRYFAGTMAEETAPAVLERHQGALYSLFPDHHVKKYFDQVDISNGLDWSLDHKIFYYIDSLSYSVDAFDYDLQTGQISNRRSVYKLEKEEQIPDGMCIDAEGKLWVACYNGGRVIRLDPVTGKRLQTVKLPVDKTTSCCFGGKNYSEMYVTCARDGMDPEGLLRQPEAGGIFKITGLGVKGIAPYSYAG | – | – | – | – | – | – | – | – | 17.45 ± 5 | 0.0357 | 0.00808 | 0.467 | 19.8 ± 2.9 | 0.453 | 0.102 | 5.17
